Results on 14 molecules are retold here after patent publication US20250361274A1, “PEPTIDE AND PEPTIDE-CONTAINING AGENT” (PEPTIDREAM INC., priority 2022, published 2025).

Numbered stars: 1 amine (or outer) side, 2 acyl side, 3 side chain; on linkers, the order of the positions; unused ones are H or OH. Bridge positions count the residues as written; N and C are the ends. Square brackets hold non-standard residues; d marks the D form. Side chains are listed from the residue outwards. Ends that are not written are not given here. Peptide text beside a SMILES is read from it. I, II: the chains in the order shown. * marks the point of attachment. ξ: configuration not given here. KCOpipzaa = N6-(4-(carboxymethyl)piperazine-1-carbonyl)-L-lysine, O=C(NCCCC[C@H](N[*:1])C(=O)[*:2])N1CCN(CC(=O)[*:3])CC1; X6 = N=C(N)NCCC[C@H](CC(=O)[C@H](CCCCNC(=O)N1CCN(CC(=O)O)CC1)N[*:2])C(=O)C[C@@H](Cc1ccc(-c2ccccc2)nc1)C(=O)[*:1]; X4 = O=C(O)c1ccc(C[C@H](N[*:1])C(=O)C[C@@H](CO)C(=O)[*:2])cc1; 3Pal(6-Ph) = N[C@@H](Cc1ccc(-c2ccccc2)nc1)C(=O)O; Phe(4-COOH) = N[C@@H](Cc1ccc(C(=O)O)cc1)C(=O)O; Piperazinyl(4-CH2COOH) = O=C(O)CN1CCN(*)CC1; Bip = N[C@@H](Cc1ccc(-c2ccccc2)cc1)C(=O)O; Phe(3-Me) = Cc1cccc(C[C@H](N)C(=O)O)c1; Hyp = O=C(O)[C@@H]1C[C@@H](O)CN1; NMeF = CN[C@@H](Cc1ccccc1)C(=O)O; 4Pal = N[C@@H](Cc1ccncc1)C(=O)O; Aad = N[C@@H](CCCC(=O)O)C(=O)O; Cha = N[C@@H](CC1CCCCC1)C(=O)O; Cit = NC(=O)NCCC[C@H](N)C(=O)O; Cba = N[C@@H](CC1CCC1)C(=O)O; Chg = N[C@H](C(=O)O)C1CCCCC1; X5 = O=C(C[*:1])[*:2]; CO = O=C([*:1])[*:2]; ξC = NC(CS)C(=O)O; βAla = NCCC(=O)O

Assay [1] concerns the target T1, BMP4 (Homo sapiens, UniProt P12644).
T1 sequence (P12644 293-408): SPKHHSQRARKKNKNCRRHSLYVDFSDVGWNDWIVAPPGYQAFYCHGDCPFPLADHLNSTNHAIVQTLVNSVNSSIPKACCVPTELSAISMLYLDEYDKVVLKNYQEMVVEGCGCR
Nature of the assay: BMP4 signal transduction inhibitory activity: SMAD1 phosphorylation by BMP4 stimulus, AlphaLISA SureFire, A549 cells. The assay is classed as cell-based. The settings on record: for aLISA BMP4: A549 cells; for aLIZA BMP4 (0.2 nM) % Inh: SMAD1 phosphorylation by BMP4 stimulus, peptide conc. in assay 0.02, 0.2, 2 nM, class symbols; for aLIZA BMP4 (0.2 nM) % inh: Table 6.

Assay [2] concerns the target T2, BMP7 (Homo sapiens, UniProt P18075).
T2 sequence (P18075 293-431): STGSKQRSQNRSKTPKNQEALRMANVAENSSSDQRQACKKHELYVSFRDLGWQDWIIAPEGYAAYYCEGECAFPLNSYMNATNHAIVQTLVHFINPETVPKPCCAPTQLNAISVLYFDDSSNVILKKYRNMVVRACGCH
Nature of the assay: BMP7 signal transduction inhibitory activity: SMAD1 phosphorylation by BMP7 stimulus, A549 cells. The assay is classed as cell-based. The settings on record: for aLISA BMP7: A549 cells; for aLIZA BMP7 (10 nM) % Inh: SMAD1 phosphorylation by BMP7 stimulus, peptide conc. in assay 10, 100, 1000 nM, class symbols; for aLIZA BMP7 (10 nM) % inh: peptide 10, 100, 1000 nM, Table 6. The method, boiled down: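 Cell line A549; stimulus BMP7 10 nM; endpoint pSMAD1. Peptide doses: three concentrations (1–1,000 nM range) or 8 × 1/3 dilutions from 100/1,000 nM.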

Where [3] appears, read: SMAD1 phosphorylation, peptides of Synthesis 2, peptide 0.02, 0.2, 2 nM.
[4] abbreviates: 10 nM BMP7, peptides of Synthesis 2, peptide 1, 10, 100 nM.
Where [5] appears, read: inhibition of SMAD1 phosphorylation by BMP4 stimulus, AlphaLISA, class by peptide concentration zone.
[6] abbreviates: inhibition of SMAD1 phosphorylation by BMP7 stimulus, AlphaLISA, class by peptide concentration zone.
Where [7] appears, read: BMP4 0.2 nM, peptide 0.02, 0.2, 2 nM.

Turning to `CC(C)[C@@H]1NC(=O)[C@H](Cc2ccc(C(=O)O)cc2)NC(=O)[C@H](C(C)C)NC(=O)[C@H](CCCNC(=N)N)NC(=O)[C@H](CCC(=O)O)NC(=O)CSCC(C(=O)NCC(N)=O)NC(=O)[C@H](CO)CC(=O)[C@H](Cc2ccc(C(=O)O)cc2)NC(=O)[C@H](Cc2ccc(C(=O)O)cc2)NC(=O)[C@H](Cc2ccc(O)cc2)NC(=O)[C@H](Cc2ccc(-c3ccccc3)cc2)NC(=O)[C@@H]2C[C@@H](O)CN2C(=O)[C@H](Cc2ccc(O)cc2)NC(=O)[C@H](CCCCNC(=O)N2CCN(CC(=O)O)CC2)NC(=O)[C@H](Cc2ccc(-c3ccccc3)nc2)CC(=O)[C@H](CCCNC(=N)N)CC(=O)[C@H](CCCCNC(=O)N2CCN(CC(=O)O)CC2)NC1=O` (stereo partly drawn) [SEQ ID No. 277, ClAc-E-R-V-F4COO-V-KCOpipzaa-R-3Py6Ph-KCOpipzaa-Y-Hyp-Bph-Y-F4COO-F4COO-S-C-G-NH2] (I: K([CO-Piperazinyl(4-CH2COOH)])Y[Hyp][Bip]Y[Phe(4-COOH)][X4][ξC]G-NH2 / II: ERV[Phe(4-COOH)]V; linker I:8-II:N via X5; linker I:N-II:C via X6), the “BMP4 inhibitory activity (in words)” value in assay [1] is listed as “same level of the BMP4 inhibitory activity as Noggin”. In addition, the “aLISA BMP4” value in assay [1] (setting [3]) was “A (showed an inhibitory activity of 50% or more in a zone to which the peptide was added to in an amount of 0.2 nM)”. Also, the “aLISA BMP7” value in assay [2] (setting [4]) was “C (showed less than 50% of inhibitory activity in 10 nM-addition zone and showed 50% or more of inhibitory activity in 100 nM-addition zone)”.

On to “246 (ERV[4Pal]VDR[3Pal(6-Ph)]SYV[Bip]Y[Phe(4-COOH)][Phe(4-COOH)]SCG-NH2; not fully specified) [compound 246]”, for which the “aLIZA BMP4 (0.2 nM) % Inh” value in assay [1] was “C (showed less than 30% of inhibitory activity in 0.2 nM-addition zone and showed 30% or more of inhibitory activity in 2 nM-addition zone)”. In addition, in assay [2], the “aLIZA BMP7 (10 nM) % Inh” value is “E (showed less than 30% of inhibitory activity in 100 nM-addition zone and showed 30% or more of inhibitory activity in 1,000 nM-addition zone)”.

Take “43 (Ac-AKVYVD[4Pal][Bip]PYP[Bip]Y[Phe(4-COOH)][Phe(4-COOH)]SCG-NH2; thioether (positions not given here); not fully specified (bridges)) [compound 43]”: the “aLISA BMP4” value in assay [1] (setting [5]) was “C (showed an inhibitory activity of less than 50% in 0.2 nM-addition zone and showed an inhibitory activity of 50% or more in 2 nM-addition zone were defined as B or C)”. For the same molecule, the “aLISA BMP7” value in assay [2] (setting [6]) is “ND (the inhibitory activity was less than 30% at the maximum concentration evaluated)”.

“58 (Ac-ARVYVD[Cit][Bip]PYP[Bip]Y[Phe(4-COOH)][Phe(4-COOH)]SCG-NH2; thioether (positions not given here); not fully specified (bridges)) [compound 58]”: the “aLISA BMP4” value in assay [1] (setting [5]) was “A (showed an inhibitory activity of 50% or more in a zone to which the peptide was added to in an amount of 0.2 nM)”. Besides, in assay [2] (setting [6]), the “aLISA BMP7” value is “C (showed less than 50% of inhibitory activity in 10 nM-addition zone and showed 50% or more of inhibitory activity in 100 nM-addition zone)”.

With “408 (FG[NMeF]G[Bip]GDE[Cha][Aad][NMeF]L[Phe(4-COOH)]C-NH2) [compound 408]”, the “aLISA BMP4 (0.2 nM) % inh” value in assay [1] (BMP4 0.2 nM stimulus, peptide conc. in assay 0.2, 2, 20 nM) is “ND (the inhibitory activity was less than 30% at the maximum concentration evaluated)”. The “aLISA BMP7 (10 nM) % inh” value in assay [2] (BMP7 10 nM stimulus, peptide conc. in assay 1, 10, 100 nM) was “C (showed less than 30% of inhibitory activity in a zone to which the peptide was added in an amount of 1 nM and showed 30% or more of inhibitory activity in 10 nM-addition zone)”.

For the molecule “315 (ERV[Phe(4-COOH)][Cba][KCOpipzaa]R[3Pal(6-Ph)][KCOpipzaa]Y[Hyp][Bip][4Pal][Phe(4-COOH)][Phe(4-COOH)]SCG-NH2) [compound 315]”, the “aLIZA BMP4 (0.2 nM) % inh” value in assay [1] (setting [7]) was “B (showed less than 30% of inhibitory activity in 0.02 nM-addition zone and showed 30% or more of inhibitory activity in 0.2 nM-addition zone)”. For the same molecule, the “aLIZA BMP7 (10 nM) % inh” value in assay [2] (BMP7 10 nM) was “E (showed less than 30% of inhibitory activity in 100 nM-addition zone and showed 30% or more of inhibitory activity in 1,000 nM-addition zone)”.

Consider “99 ({CH2CO}-E[KCOpipzaa]VYVDR[Bip]SYP[Bip]Y[Phe(4-COOH)][Phe(4-COOH)]SC[βAla][dE]-OH; thioether N-17; not fully specified) [compound 99]”, for which, in assay [1] (inhibition of SMAD1 phosphorylation by BMP4 stimulus, peptides of Synthesis 2, classes A-C, ND), the “aLISA BMP4” value is listed as “A (showed an inhibitory activity of 50% or more in a zone to which the peptide was added to in an amount of 0.2 nM)”. In addition, the “aLISA BMP7” value in assay [2] (inhibition of SMAD1 phosphorylation by BMP7 stimulus, peptides of Synthesis 2, classes A-D, ND) is “C (showed less than 50% of inhibitory activity in 10 nM-addition zone and showed 50% or more of inhibitory activity in 100 nM-addition zone)”.

For “342 (FG[NMeF]G[Bip]GDD[Cha]T[NMeF]LHCG-NH2; not fully specified (N-terminus, bridges)) [compound 342]”, the “aLISA BMP4 (0.2 nM) % inh” value in assay [1] (SMAD1 phosphorylation, BMP4 0.2 nM, peptide conc. in assay 0.2, 2, 20 nM) was “ND (the inhibitory activity was less than 30% at the maximum concentration evaluated)”. The “aLISA BMP7 (10 nM) % inh” value in assay [2] (SMAD1 phosphorylation, BMP7 10 nM, peptide conc. in assay 1, 10, 100 nM) is “D (showed less than 30% of inhibitory activity in 10 nM-addition zone and showed 30% or more of inhibitory activity in 100 nM-addition zone)”.

As for “307 (ERV[Phe(4-COOH)][Chg][KCOpipzaa]R[3Pal(6-Ph)][KCOpipzaa]Y[Hyp][Bip]Y[Phe(4-COOH)][Phe(4-COOH)]SCG-NH2; not fully specified) [compound 307]”, the “aLIZA BMP4 (0.2 nM) % inh” value in assay [1] (setting [7]) was “C (showed less than 30% of inhibitory activity in 0.2 nM-addition zone and showed 30% or more of inhibitory activity in 2 nM-addition zone)”. Besides, the “aLIZA BMP7 (10 nM) % inh” value in assay [2] (BMP7 10 nM) is “E (showed less than 30% of inhibitory activity in 100 nM-addition zone and showed 30% or more of inhibitory activity in 1,000 nM-addition zone)”.

Take “249 (ERVHVDR[3Pal(6-Ph)]SYV[Bip]Y[Phe(4-COOH)][Phe(4-COOH)]SCG-NH2; not fully specified) [compound 249]”: in assay [1], the “aLIZA BMP4 (0.2 nM) % Inh” value was “C (showed less than 30% of inhibitory activity in 0.2 nM-addition zone and showed 30% or more of inhibitory activity in 2 nM-addition zone)”. Also, the “aLIZA BMP7 (10 nM) % Inh” value in assay [2] was “E (showed less than 30% of inhibitory activity in 100 nM-addition zone and showed 30% or more of inhibitory activity in 1,000 nM-addition zone)”.

Take “53 (Ac-ERVYVDR[Bip]PYP[Bip]Y[Phe(4-COOH)][Phe(4-COOH)]SCG-NH2; thioether (positions not given here); not fully specified (bridges)) [compound 53]”: the “aLISA BMP4” value in assay [1] (setting [5]) is given as “A (showed an inhibitory activity of 50% or more in a zone to which the peptide was added to in an amount of 0.2 nM)”. The “aLISA BMP7” value in assay [2] (setting [6]) is “ND (the inhibitory activity was less than 30% at the maximum concentration evaluated)”.

For the molecule “37 ({CH2CO}-AK(Ac)VYVDK[Bip]PYP[Bip]Y[Phe(4-COOH)][Phe(4-COOH)]SCG-NH2; thioether N-17; not fully specified) [compound 37]”, the “aLISA BMP4” value in assay [1] (setting [3]) is on record as “A (showed an inhibitory activity of 50% or more in a zone to which the peptide was added to in an amount of 0.2 nM)”. In assay [2] (setting [4]), the “aLISA BMP7” value is listed as “ND (the inhibitory activity was less than 30% at the maximum concentration evaluated)”.

For “374 ([Phe(3-Me)]G[NMeF]G[Bip]GDD[Cha]A[NMeF]LHCG-NH2; not fully specified) [compound 374]”, the “aLISA BMP4 (0.2 nM) % inh” value in assay [1] (BMP4 0.2 nM stimulus, peptide conc. in assay 2, 20, 200 nM) was “ND (the inhibitory activity was less than 30% at the maximum concentration evaluated)”. Besides, in assay [2] (BMP7 10 nM stimulus, peptide conc. in assay 10, 30, 90 nM), the “aLISA BMP7 (10 nM) % inh” value is “G (showed less than 30% of inhibitory activity in 30 nM-addition zone and showed 30% or more of inhibitory activity in 90 nM-addition zone)”.

For “33 ({CH2CO}-ARVYVDR[3Pal(6-Ph)]PYP[3Pal(6-Ph)][4Pal][Phe(4-COOH)][Phe(4-COOH)]SCG-NH2; thioether N-17; not fully specified) [compound 33]”, in assay [1] (setting [3]), the “aLISA BMP4” value was “C (showed an inhibitory activity of less than 50% in 0.2 nM-addition zone and showed an inhibitory activity of 50% or more in 2 nM-addition zone were defined as B or C)”. The “aLISA BMP7” value in assay [2] (setting [4]) is reported as “ND (the inhibitory activity was less than 30% at the maximum concentration evaluated)”.
